From the supplement of paper PMC10724198
± gives the standard deviation of the averaged measurements.

Tests used:
Saccharomyces cerevisiae [1] = experiment: protein stability index of tFT-peptide fusion (C-terminal peptide) (PSI (0-1 scale)); higher = more stable (slower turnover)
Experimental: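 MPS profiling in S. cerevisiae of the tFT-X12 degron library: putative degron peptides plus stable controls, 12 aa, fused to the C-terminus of a sfGFP-mCherry timer. Cells are FACS-sorted into 8 mCherry/sfGFP bins and deep-sequenced. PSI runs from 0 (unstable) to 1 (stable). Backgrounds are wild type, das1Δ and doa10Δ at 30 °C, and wild type, das1Δ, cdc34-1 and cdc53-1 at 37 °C; 2-3 technical replicates each.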

Saccharomyces cerevisiae [2] = experiment: as above; details: genetic background: wild type; temperature: 30 C
[3] = genetic background: cdc34-1, temperature: 37 C
[4] = genetic background: cdc53-1, temperature: 37 C
[5] = genetic background: das1 deletion, temperature: 30 C
[6] = genetic background: das1 deletion, temperature: 37 C
[7] = genetic background: doa10 deletion, temperature: 30 C
[8] = genetic background: wild type, temperature: 30 C
[9] = genetic background: wild type, temperature: 37 C
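Further: PSI is a weighted mean of sequencing reads over stability bins, variants kept only with over 10 reads, mCherry proximal and sfGFP distal, peptide attached via GGGS linker.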

Sequence	protein stability index (Saccharomyces cerevisiae [1]; [3])	protein stability index (Saccharomyces cerevisiae [1]; [4])	protein stability index (Saccharomyces cerevisiae [1]; [5])	protein stability index (Saccharomyces cerevisiae [1]; [6])	protein stability index (Saccharomyces cerevisiae [1]; [7])	protein stability index (Saccharomyces cerevisiae [1]; [8])	protein stability index (Saccharomyces cerevisiae [1]; [9])	protein stability index (Saccharomyces cerevisiae [2])
VIRFNSAPRFLV	0.614 ± 0.054	0.7214 ± 0.0026	0.629 ± 0.026	0.7443 ± 0.0009	0.108 ± 0.031	0.125 ± 0.016	0.236 ± 0.0043	0.213 ± 0.047
LSLSPRLPRLVA	0.613 ± 0.015	0.659 ± 0.018	0.537 ± 0.014	0.663 ± 0.0015	0.156 ± 0.0087	0.197 ± 0.023	0.377 ± 0.026	0.283 ± 0.038
LLLPVFRFFFVN	0.468 ± 0.032	0.632 ± 0.065	0.554 ± 0.026	0.672 ± 0.021	0.0849 ± 0.023	0.109 ± 0.007	0.143 ± 0.0049	0.203 ± 0.04
FWGRAGVWRLKG	0.684 ± 0.044	0.759 ± 0.019	0.651 ± 0.021	0.7821 ± 0.0066	0.228 ± 0.0067	0.276 ± 0.026	0.595 ± 0.022	0.334 ± 0.025
RLSGACILLSLV	0.634 ± 0.045	0.694 ± 0.015	0.553 ± 0.03	0.681 ± 0.0082	0.217 ± 0.0063	0.259 ± 0.022	0.439 ± 0.026	0.388 ± 0.081
SRDSLLTLIPSC	0.646 ± 0.058	0.733 ± 0.0095	0.6189 ± 0.002	0.7393 ± 0.0043	0.622 ± 0.017	0.636 ± 0.013	0.697 ± 0.0081	0.692 ± 0.037
VFRLFFLLVWLV	0.079 ± 0.016	0.0744 ± 0.019	0.184 ± 0.023	0.25 ± 0.0081	0.1663 ± 0.00045	0.112 ± 0.026	0.13 ± 0.021	0.123 ± 0.014
RFFFASRYIECF	0.181 ± 0.0096	0.173 ± 0.027	0.216 ± 0.014	0.354 ± 0.013	0.187 ± 0.0019	0.22 ± 0.036	0.281 ± 0.028	0.416 ± 0.11
YFFFYFFLLFHL	0.265 ± 0.051	0.272 ± 0.036	0.332 ± 0.034	0.45 ± 0.045	0.416 ± 0.015	0.3115 ± 0.0019	0.429 ± 0.037	0.375 ± 0.071
PPPPPLAIPHPT	0.655 ± 0.037	0.709 ± 0.013	0.661 ± 0.04	0.684 ± 0.024	0.639 ± 0.011	0.674 ± 0.031	0.7141 ± 0.0041	0.7255 ± 0.0042
GSITFFKMVQSG	0.656 ± 0.021	0.748 ± 0.012	0.622 ± 0.021	0.744 ± 0.012	0.376 ± 0.014	0.417 ± 0.028	0.687 ± 0.011	0.469 ± 0.023
FFLFILYFGSCF	0.358 ± 0.025	0.422 ± 0.0051	0.349 ± 0.034	0.481 ± 0.0073	0.362 ± 0.017	0.329 ± 0.012	0.448 ± 0.017	0.399 ± 0.029
TFLCSSLALAVI	0.455 ± 0.03	0.509 ± 0.032	0.338 ± 0.022	0.4985 ± 0.0021	0.317 ± 0.023	0.334 ± 0.014	0.4789 ± 0.00054	0.405 ± 0.042
LSFFICSFFFVL	0.514 ± 0.045	0.556 ± 0.014	0.456 ± 0.03	0.5798 ± 0.0013	0.344 ± 0.006	0.361 ± 0.021	0.5113 ± 0.0012	0.408 ± 0.013
VLVLSFLYRMVK	0.353 ± 0.065	0.4364 ± 0.0007	0.312 ± 0.054	0.507 ± 0.013	0.271 ± 0.013	0.304 ± 0.017	0.436 ± 0.032	0.376 ± 0.033
KVALWRRGVLAA	0.363 ± 0.028	0.387 ± 0.013	0.257 ± 0.037	0.476 ± 0.011	0.142 ± 0.0064	0.161 ± 0.02	0.286 ± 0.0099	0.231 ± 0.007
RLRWLSPMTHVG	0.634 ± 0.013	0.7337 ± 0.0061	0.666 ± 0.025	0.726 ± 0.024	0.263 ± 0.0086	0.286 ± 0.016	0.5802 ± 0.0019	0.463 ± 0.012
LYTFCSMDANPM	0.397 ± 0.019	0.439 ± 0.011	0.439 ± 0.019	0.383 ± 0.033	0.488 ± 0.028	0.468 ± 0.0092	0.407 ± 0.04	0.4016 ± 0.0012
FPPFALLLIIND	0.475 ± 0.015	0.54 ± 0.039	0.396 ± 0.023	0.581 ± 0.058	0.415 ± 0.0098	0.421 ± 0.029	0.525 ± 0.0097	0.406 ± 0.089
PPRSRPLLRPLP	0.699 ± 0.0037	0.726 ± 0.012	0.666 ± 0.022	0.7139 ± 0.0036	0.684 ± 0.033	0.684 ± 0.022	0.708 ± 0.025	0.746 ± 0.021
